Series [1] has as its target T1, NM23-H2 D121A (UniProt P22392 1-152, D121A). The series is described as follows: filter binding.
Series [2] concerns the target T2, NM23-H2 D54A/D121A/F60A (UniProt P22392 1-152, D54A;F60A;D121A). The series is described as follows: filter binding.
Series [3] addresses T3, NM23-H2 D54A/D121A (UniProt P22392 1-152, D54A;D121A). The series can be described thus: filter binding.
The target in series [4] is T4, NM23-H2 G113F (UniProt P22392 1-152, G113F). The series is described as follows: filter binding.
T4 sequence (P22392 whole entry G113F): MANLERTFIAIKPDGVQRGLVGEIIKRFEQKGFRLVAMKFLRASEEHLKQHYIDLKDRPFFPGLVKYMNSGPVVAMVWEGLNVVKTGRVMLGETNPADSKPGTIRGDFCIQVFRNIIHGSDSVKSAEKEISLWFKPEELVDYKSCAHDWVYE
Series [5] concerns the target T1, NM23-H2 D121A. The series can be described thus: EMSA.
Series [6] addresses T2, NM23-H2 D54A/D121A/F60A. The series can be described thus: EMSA. For orientation: Mobility shift assays separate free from complexed probe on a gel.
In series [7] the target is T3, NM23-H2 D54A/D121A. The series can be described thus: EMSA.
Series [8] has as its target T4, NM23-H2 G113F. The series can be described thus: EMSA.
The target of series [9] is NM23-H2 wild-type (UniProt P22392 1-152). The series can be described thus: ELISA. (An ELISA detects its analyte on a solid surface through an enzyme-linked reagent.)
Sequence of NM23-H2 wild-type (P22392 whole entry): as the sequence (P22392 whole entry G113F) above, with F113G counted along it

T1 sequence (P22392 whole entry D121A): as the sequence (P22392 whole entry G113F) above, with F113G, D121A counted along it
T2 sequence (P22392 whole entry D54A/F60A/D121A): as the sequence (P22392 whole entry G113F) above, with D54A, F60A, F113G, D121A counted along it
T3 sequence (P22392 whole entry D54A/D121A): as the sequence (P22392 whole entry G113F) above, with D54A, F113G, D121A counted along it

Consider TGGGGAGGGTGGGGAGGGTGGGGAAGG (ssDNA) [SS-Pu27 (biotin)], for which the binding result in series [1], in series [2], in [3] and in series [4] was “no binding” throughout.

With TGGGGAGGGTGGGGAGGGTGGGGAAGG (ssDNA) [c-MYC Pu27 (FAM)], the binding result in series [5], in series [6], in [7] and in [8] was “no binding” each time.

As for AGGGTGGGGAGGGTGGGG (structured_DNA) [c-MYC Pu18 G-quadruplex], binding in [9] was characterised by a dissociation constant (Kd) of 0.53 ± 0.018 µM.

Broadly, the Kd is the concentration at which binding is half-saturated. Low values mean tighter binding, high ones weaker binding.

The values above are taken from article PMC4538829.
